Experimental data: paper PMC2918618, “Characterization of the TnsD-attTn7 complex that promotes site-specific insertion of Tn7” (Mobile DNA, 2010)

Legend:
Assay in all cases: EMSA; Gel-shift buffer not given (as described in ref. 6); TnsD stored in 500 mM KCl, 50 mM Tris-HCl pH 8.0, 1 mM EDTA, 2 mM DTT, 25% glycerol
[1] = molecular target: T1, TnsD C127S (Escherichia coli (transposon Tn7), UniProt P13991 1-508, C127S); details: protein: recombinant; tags: intein-chitin tag, cleaved with DTT
T1 sequence: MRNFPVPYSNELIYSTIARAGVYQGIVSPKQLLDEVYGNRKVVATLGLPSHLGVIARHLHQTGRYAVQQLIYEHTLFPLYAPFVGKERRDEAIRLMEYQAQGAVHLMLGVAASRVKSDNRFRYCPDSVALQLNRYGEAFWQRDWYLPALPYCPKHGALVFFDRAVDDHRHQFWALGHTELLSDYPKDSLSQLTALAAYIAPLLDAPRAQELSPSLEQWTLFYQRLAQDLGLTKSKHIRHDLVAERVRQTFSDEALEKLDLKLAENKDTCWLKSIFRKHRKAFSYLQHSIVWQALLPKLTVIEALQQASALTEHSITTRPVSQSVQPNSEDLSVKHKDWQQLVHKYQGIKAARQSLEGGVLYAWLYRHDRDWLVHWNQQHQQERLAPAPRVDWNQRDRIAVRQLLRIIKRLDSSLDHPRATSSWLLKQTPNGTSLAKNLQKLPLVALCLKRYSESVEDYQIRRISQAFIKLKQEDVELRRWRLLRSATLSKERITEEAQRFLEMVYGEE

[2] = molecular target: T2, TnsD C152S (Escherichia coli (transposon Tn7), UniProt P13991 1-508, C152S); details: protein: recombinant; tags: intein-chitin tag, cleaved with DTT
T2 sequence: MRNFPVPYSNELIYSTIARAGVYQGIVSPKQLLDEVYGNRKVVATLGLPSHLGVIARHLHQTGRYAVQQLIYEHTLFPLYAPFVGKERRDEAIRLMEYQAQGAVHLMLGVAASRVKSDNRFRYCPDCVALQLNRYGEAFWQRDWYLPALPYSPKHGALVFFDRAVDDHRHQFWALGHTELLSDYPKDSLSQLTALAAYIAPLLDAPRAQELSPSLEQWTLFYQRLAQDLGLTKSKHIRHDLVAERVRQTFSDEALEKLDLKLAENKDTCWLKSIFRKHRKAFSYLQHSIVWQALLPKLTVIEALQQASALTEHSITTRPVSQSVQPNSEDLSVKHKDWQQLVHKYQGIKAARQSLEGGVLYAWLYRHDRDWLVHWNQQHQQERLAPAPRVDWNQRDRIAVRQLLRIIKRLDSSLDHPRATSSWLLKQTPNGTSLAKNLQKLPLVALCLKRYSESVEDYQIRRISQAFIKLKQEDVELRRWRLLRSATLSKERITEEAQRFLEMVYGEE

[3] = molecular target: T3, TnsD H155S (Escherichia coli (transposon Tn7), UniProt P13991 1-508, H155S); details: protein: recombinant; tags: intein-chitin tag, cleaved with DTT
T3 sequence: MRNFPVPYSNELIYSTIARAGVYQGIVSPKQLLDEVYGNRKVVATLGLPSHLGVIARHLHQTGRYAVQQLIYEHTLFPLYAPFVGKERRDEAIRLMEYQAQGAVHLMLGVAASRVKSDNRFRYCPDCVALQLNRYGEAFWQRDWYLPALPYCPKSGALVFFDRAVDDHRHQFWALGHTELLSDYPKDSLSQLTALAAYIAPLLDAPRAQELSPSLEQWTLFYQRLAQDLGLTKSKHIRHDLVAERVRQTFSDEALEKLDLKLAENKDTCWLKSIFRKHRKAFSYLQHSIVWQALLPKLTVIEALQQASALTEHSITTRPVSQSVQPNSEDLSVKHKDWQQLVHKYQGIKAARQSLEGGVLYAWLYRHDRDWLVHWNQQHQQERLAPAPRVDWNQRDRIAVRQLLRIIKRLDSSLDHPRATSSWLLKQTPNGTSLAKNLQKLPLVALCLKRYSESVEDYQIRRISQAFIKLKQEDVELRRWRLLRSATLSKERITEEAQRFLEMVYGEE

[4] = molecular target: T4, TnsD W371Z (Escherichia coli (transposon Tn7), UniProt P13991 1-370); details: protein: recombinant
T4 sequence: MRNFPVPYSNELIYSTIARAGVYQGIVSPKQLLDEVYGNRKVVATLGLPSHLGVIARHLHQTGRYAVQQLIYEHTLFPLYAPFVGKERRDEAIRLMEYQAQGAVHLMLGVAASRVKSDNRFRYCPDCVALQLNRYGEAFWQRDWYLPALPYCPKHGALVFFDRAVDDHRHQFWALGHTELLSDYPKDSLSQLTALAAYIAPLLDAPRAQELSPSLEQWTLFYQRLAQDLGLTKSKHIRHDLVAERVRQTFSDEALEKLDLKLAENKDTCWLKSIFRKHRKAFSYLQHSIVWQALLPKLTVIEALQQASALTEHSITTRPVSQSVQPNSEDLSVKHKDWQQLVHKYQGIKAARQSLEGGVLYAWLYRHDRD

B1: attTn7 wt (+23 to +58) (dsDNA)
DNA 1: CCGCGTAACCTGGCAAAATCGGTTACGGTTGAGTAA
DNA 2: TTACTCAACCGTAACCGATTTTGCCAGGTTACGCGG
- binding signal [1]: 0.05 relative to wt
- binding signal [2]: 0.05 relative to wt
- binding signal [3]: 0.05 relative to wt
- binding signal [4]: < 0.05 relative to wt
